Experimental data published in IntAct's records for PubMed 19966303.

Legend:
atc5_yeast DNF1 = atc5_yeast DNF1 (UniProt P32660)
ypk1_yeast YPK1 = ypk1_yeast YPK1 (UniProt P12688)
Sequence of ypk1_yeast YPK1 (P12688 whole entry): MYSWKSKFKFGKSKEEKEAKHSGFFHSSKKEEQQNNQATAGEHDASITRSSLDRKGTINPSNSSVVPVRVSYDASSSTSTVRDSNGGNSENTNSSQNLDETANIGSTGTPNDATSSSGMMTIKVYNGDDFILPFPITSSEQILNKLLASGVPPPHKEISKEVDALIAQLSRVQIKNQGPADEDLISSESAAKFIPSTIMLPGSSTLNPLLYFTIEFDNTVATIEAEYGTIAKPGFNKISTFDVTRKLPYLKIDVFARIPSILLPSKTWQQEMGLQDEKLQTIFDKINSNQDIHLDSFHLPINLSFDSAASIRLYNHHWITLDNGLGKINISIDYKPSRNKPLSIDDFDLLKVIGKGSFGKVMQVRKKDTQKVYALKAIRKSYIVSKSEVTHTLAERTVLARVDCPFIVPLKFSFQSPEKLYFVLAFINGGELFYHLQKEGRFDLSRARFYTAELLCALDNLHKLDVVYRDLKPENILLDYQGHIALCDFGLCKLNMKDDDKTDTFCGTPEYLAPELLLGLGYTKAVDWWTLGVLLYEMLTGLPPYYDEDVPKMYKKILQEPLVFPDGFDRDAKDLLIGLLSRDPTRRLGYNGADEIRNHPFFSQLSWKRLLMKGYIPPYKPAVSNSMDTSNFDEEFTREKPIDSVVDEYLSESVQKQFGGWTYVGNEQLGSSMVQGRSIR

Sequence of atc5_yeast DNF1 (P32660 whole entry): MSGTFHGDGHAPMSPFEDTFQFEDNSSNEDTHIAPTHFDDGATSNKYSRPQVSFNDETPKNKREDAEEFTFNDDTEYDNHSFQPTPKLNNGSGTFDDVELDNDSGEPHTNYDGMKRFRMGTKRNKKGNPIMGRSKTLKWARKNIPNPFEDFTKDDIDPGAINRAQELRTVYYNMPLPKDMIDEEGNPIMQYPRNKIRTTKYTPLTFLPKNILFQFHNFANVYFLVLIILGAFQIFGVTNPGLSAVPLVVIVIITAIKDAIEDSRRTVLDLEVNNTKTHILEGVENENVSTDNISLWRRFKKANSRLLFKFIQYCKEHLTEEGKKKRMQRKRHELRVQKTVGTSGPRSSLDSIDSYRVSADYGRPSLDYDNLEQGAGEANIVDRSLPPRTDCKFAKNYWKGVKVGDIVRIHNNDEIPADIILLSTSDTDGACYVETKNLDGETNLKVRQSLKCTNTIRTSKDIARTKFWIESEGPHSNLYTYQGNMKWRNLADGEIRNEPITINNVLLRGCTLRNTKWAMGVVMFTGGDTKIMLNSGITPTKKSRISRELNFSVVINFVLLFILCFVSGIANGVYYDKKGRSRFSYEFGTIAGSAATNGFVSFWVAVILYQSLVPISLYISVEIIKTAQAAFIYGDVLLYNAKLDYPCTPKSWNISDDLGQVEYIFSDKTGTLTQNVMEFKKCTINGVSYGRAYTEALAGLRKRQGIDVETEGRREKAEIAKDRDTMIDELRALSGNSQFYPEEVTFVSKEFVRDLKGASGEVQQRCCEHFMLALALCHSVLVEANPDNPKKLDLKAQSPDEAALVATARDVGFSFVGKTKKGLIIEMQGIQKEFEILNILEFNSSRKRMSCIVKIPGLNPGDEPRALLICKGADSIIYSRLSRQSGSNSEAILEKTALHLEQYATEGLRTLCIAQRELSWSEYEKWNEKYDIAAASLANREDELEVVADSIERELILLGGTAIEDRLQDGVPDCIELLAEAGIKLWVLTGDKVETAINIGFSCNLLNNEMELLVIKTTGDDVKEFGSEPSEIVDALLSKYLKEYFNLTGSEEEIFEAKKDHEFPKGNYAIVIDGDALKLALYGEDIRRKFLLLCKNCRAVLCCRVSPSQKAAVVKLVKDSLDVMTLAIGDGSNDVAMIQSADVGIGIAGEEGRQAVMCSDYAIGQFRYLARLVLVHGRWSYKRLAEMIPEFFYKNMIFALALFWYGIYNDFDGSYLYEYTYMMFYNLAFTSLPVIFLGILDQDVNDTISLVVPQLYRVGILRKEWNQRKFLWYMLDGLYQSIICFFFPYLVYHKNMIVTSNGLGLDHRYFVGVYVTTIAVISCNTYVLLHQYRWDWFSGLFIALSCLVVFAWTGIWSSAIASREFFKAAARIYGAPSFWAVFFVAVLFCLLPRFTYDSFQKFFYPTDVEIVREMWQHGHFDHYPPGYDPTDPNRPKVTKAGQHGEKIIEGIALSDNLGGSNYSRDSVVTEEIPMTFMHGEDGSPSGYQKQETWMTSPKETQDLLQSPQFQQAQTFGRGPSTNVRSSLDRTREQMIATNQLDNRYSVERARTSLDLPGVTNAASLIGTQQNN

- effect of a mutation on the interaction (atc5_yeast DNF1): disrupting interaction
- effect of a mutation on the interaction (ypk1_yeast YPK1): disrupting interaction
Substance: Flippase kinase 1 (Saccharomyces cerevisiae), P53739 D621A
